# Experimental data: paper PMC7156504 (2020)
# Biological target: biotinylated nerve growth factor (NGF) (human, UniProt P01138 122-241, biotin (biotinylated in-house, sites not stated))
# Assay: FRET; epitope competition with labelled IgGWFL
# Chain of biotinylated nerve growth factor (NGF) (P01138 122-241): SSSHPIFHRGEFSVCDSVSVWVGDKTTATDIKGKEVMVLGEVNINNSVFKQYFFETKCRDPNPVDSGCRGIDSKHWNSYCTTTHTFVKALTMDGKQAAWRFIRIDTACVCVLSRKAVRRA
row,Binder,IC50
1,"evolved scFvWFL variant 37 reformatted as IgG1 (antibody, V domains shown) VH: QVQLVPSGAEVKKPGSSVKVSCKASGGTFWFGAFTWVRQAPGQGLEWMGGIIPTFGLTNLAQNFQGRVTITADESTSTVYMELSSLRSEDTAVYYCARSSRIYDLNPSLTAYYDMDVWGQGTMVTVSS VL: QSVLTQPPSVSAAPGQKVTISCSGPSSDIGNNYVSWYQQLPGTAPKLLIYDNNKRPSGIPDRFSGSKSGTSATLGITGLQTGDEADYYCGTWDSSLSAWVFGGGTKLTVL",0.136 nM
2,"MEDI578 (the parent antibody prior to affinity maturation into MEDI1912) (antibody, V domains shown) VH: QVQLVQSGAEVKKPGSSVKVSCKASGGTFSTYGISWVRQAPGQGLEWMGGIIPIFDTGNSAQSFQGRVTITADESTSTAYMELSSLRSEDTAVYYCARSSRIYDLNPSLTAYYDMDVWGQGTMVTVSS VL: QSVLTQPPSVSAAPGQKVTISCSGSSSNIGNNYVSWYQQLPGTAPKLLIYDNNKRPSGIPDRFSGSKSGTSATLGITGLQTGDEADYYCGTWDSSLSAWVFGGGTKLTVL",36.8 nM
3,"evolved scFvWFL variant 16 reformatted as IgG1 (antibody, V domains shown) VH: QVQLVQSGAEVKKPGSSVKVSCKASGGTFWSGAFTWVRQAPGQGLEWMGGIIPISGLTNLAQNFQGRVTITADESTSTAYMELSSLRSEDTAVYYCARSSRIYDLNPSLTAYYDMDVWGQGTMVTVSS VL: QSVLTQPPSVSAAPGQKVTISCSGSSSDIGNNYVSWYQQLPGTAPKLLIYDNNKRPSGIPDRFSGSKSGTSATLGITGLQTGDEADYYCGTWDSSLSAWVIGGGTKLTVL",0.935 nM
4,"evolved scFvWFL variant 59 reformatted as IgG1 (antibody, V domains shown) VH: QVQLVQSGAEVKKPGSSVKVSCKASGGTFRFGAFTWARQAPGQGLEWMGGIIPIFGLTNLAQNFQGRATITADESTSTVYMELSSLRSEDTAVYYCARSSRIYDLNPSLTAYYDMDVWGQGTMVTVSS VL: QSVLTQPPSVSAAPGQKVTISCSGSSSDIGNNYVSWYQQLPGTAPKLLTYDNNKRPSGIPGRFSGSKSGTSATLGITGLQTGDEADYYCGTWDSSLSAWVFGGGTKLTVL",0.177 nM
5,"evolved scFvWFL variant 11 reformatted as IgG1 (antibody, V domains shown) VH: QVQLVRSGAEVKKPGSSVKVSCKASGGTFWFGAFTWVRQAPGQGLEWMGGIIPIFGLTNLAQNFQGRVTITADESTSTVYMELSSLRSEDTAVYYCARSSRIYDLNPSLAAYYDMDVWGQGTMVTVSS VL: QSVLTQPPSVSAAPGQKVTIPCSGSSSDIGNNYVSWYQQLPGTAPKLLIYDNNKRPSGIPDRFSGSKSGTSATLGVTGLQTGDEADYYCGTWDSSLSAWVFGGGTKLTVL",0.251 nM
6,"IgGSTT, variant of MEDI1912 with W35S, F36T and L64T in VH (antibody, V domains shown) VH: QVQLVQSGAEVKKPGSSVKVSCKASGGTFSTGAFTWVRQAPGQGLEWMGGIIPIFGTTNLAQNFQGRVTITADESTSTVYMELSSLRSEDTAVYYCARSSRIYDLNPSLTAYYDMDVWGQGTMVTVSS VL: QSVLTQPPSVSAAPGQKVTISCSGSSSDIGNNYVSWYQQLPGTAPKLLIYDNNKRPSGIPDRFSGSKSGTSATLGITGLQTGDEADYYCGTWDSSLSAWVFGGGTKLTVL",0.573 nM
7,"IgGWFL (MEDI1912), human IgG1 antibody specific for human nerve growth factor (antibody, V domains shown) VH: QVQLVQSGAEVKKPGSSVKVSCKASGGTFWFGAFTWVRQAPGQGLEWMGGIIPIFGLTNLAQNFQGRVTITADESTSTVYMELSSLRSEDTAVYYCARSSRIYDLNPSLTAYYDMDVWGQGTMVTVSS VL: QSVLTQPPSVSAAPGQKVTISCSGSSSDIGNNYVSWYQQLPGTAPKLLIYDNNKRPSGIPDRFSGSKSGTSATLGITGLQTGDEADYYCGTWDSSLSAWVFGGGTKLTVL",0.363 nM

# More lines, now with the values ahead:
row,IC50,Binder
1,0.201 nM,"evolved scFvWFL variant 176 reformatted as IgG1 (antibody, V domains shown) VH: QVQLVRSGAEVKKPGSSVKVSCKASGGTFWFGAFTWVRQAPGQGLEWMGGIIPIFGLTNLAQNFQGRVTITADESTSTVYMELSSLRSEDTAVYYCARSSRIYDLNPSLTAYYDMDVWGQGTMVTVSS VL: QSVLTQPPSVSAAPGQKVTISCSGSSSDIGNNYVSWYQQLPGTAPKLLIYDNNKRPSGIPDRFSGSKSGTSATLGITGLQTGDEADYYCGTWDSSLSAWVFGGGTKLTVL"
2,1.41 nM,"evolved scFvWFL variant 128 reformatted as IgG1 (antibody, V domains shown) VH: QVQLVQSGAEVKKPGSSVKVSCKASGGTFWFGAFTWVRQAPGQGLEWMGGIIPIFGLTNLAQNFQGRVTITADESTSTVYMELSSLRSEDTAVYYCARSSRIYDLNPSLTADYDMDVWGQGTMVTVSS VL: QSVLTQPPSVSAAPGQEVTISCSGSSSDIGNNYVSWYQQPPGAAPKLLIYDNNKRPSGIPDRFSGSKSGTSATLGITGLQTGDEADYYCGTWDSSLSAWVFGGGTKLTVL"
3,0.649 nM,"evolved scFvWFL variant 139 reformatted as IgG1 (antibody, V domains shown) VH: QVQLVQSGAEVKKPGSSVKVSCKAGGGTFWSGAFTWVRQAPGQGLEWMGGIIPIFGLTNLAQNFQGRVTITADESTSTVYMELSSLRSEDTAVYYCARSSRTYDLNPSLTAYYDMDVWGQGTMVTVSS VL: QSVLTQPPSVSAAPGQKVTISCSGSSSDIGNNYVSWYQQLPGTAPKLLIYDNNKRPSGIPDRFSGSKSGTTATLGITGLQTGDEADYYCGTWDSSLSAWVFGGGTKLTVL"
4,2.06 nM,"evolved scFvWFL variant 130 reformatted as IgG1 (antibody, V domains shown) VH: QVQLVQSGAEVKKPGSSVKVSCKASGGAFWFGAFTWVRQAPGQGLEWMGGITPIFGHTNLAQNFQGRVTITADESTSTVYMELSSLRSEDTAVYYCARSSRIYDLNPSLTAYYDMDVWGQGTMVTVSS VL: QSVLTQPPSVSAAPGQKVTISCSGSSSDIGNNYVSWYQQLPGTAPKLLIYDNNKRPSGIPDRFSGSKSGTSATLGITGLQTGDEADYYCGTWDSSLSAWVFGGGTKLTVL"
5,1.91 nM,"evolved scFvWFL variant 72 reformatted as IgG1 (antibody, V domains shown) VH: QVQLVQSGAEVKKPGSSVKVSCKASGGTSWFGAFTWVRQAPGQGLEWMGGTIPIFGLTNLAQNFQGRVTITADESTSTVYMELSSLRSDDTAVYYCARSSRIYDLNPSLTAYYDMGVWGQGTMVTVSS VL: QSVLTQPPSVSAAPGQKVTISCSGSSSDIGDNYVSWYQQLPGTAPKLLIYDNNKRPSGIPDRFSGSKSGTSATLGITGLQTGDEADYYCGTWDSSLSAWVFGGGTKLTVL"
6,5.69 nM,"evolved scFvWFL variant 126 reformatted as IgG1 (antibody, V domains shown) VH: QVQLVQSGAEVKKPGSSVKVSCKASGGTFWFGAFTWVRQAPGQGLEWMGGFIPISGLTNLAQNFQGRVTITADESTSTVYMELSSLRSEDTAVYYCARSSRIYDLNPSLTAYYDMDVWGQGTMVTVSS VL: QSVLTQPPSVSAAPGQKVTISCSGSSSDIGNNYVSWYQQLPGTAPKLLIYDNNKRPSGIPDRFSGSKSGTSATLGITGLQTGDEADYYCGTWDSSLSAWVFGGGTKLTVL"
